From US12551573B2, “Compositions and methods for the targeting of PCSK9” (Scribe Therapeutics Inc., priority 2022, dated 2026)
Residue numbers refer to the chain shown, from its start.

B1: DOMAIN_18726 (protein, listed as Myotis davidii)
chain: PNALVTFQDVFVDFSPEELASLSAAQRRLHREVTLENYRNLVSLGYQFPRPDIITQLEEEESSAMEEDSNTKTGPDWETGP
B2: DOMAIN_17180 (protein, listed as Zalophus californianus)
chain: FQDSVTFEDVAVRFSSGEWQCLTRAQRHLYADVMLENYGNMISVGFAVPKPPLISHLEQGAEPCVQDLQDGGFLSCSFPVS
B3: DOMAIN_19388 (protein, listed as Physeter macrocephalus)
chain: MTFEDVAVEFTRWEWGQLDPTQKDVYREVMLENFKNLASLGFPMSKPYVICRLEEGEEPCILEREISTGAPADWERRRQAK
B4: DOMAIN_17534 (protein)
chain: SQGSVSFKDVTVDFTQEEWQQLDPAQKALYRDVMLENYCHFVSVGFHMTKPDMIRKLEQGEELWTQRIFPSYSYLAEDGKT
modifications: Cercocebus atys
B5: DOMAIN_17801 (protein, listed as Pongo sp.)
chain: EPGAVSFADVAVYFCREEWGCLRPAQRALYRDVMRETYGHLSALGIGGNKPALISWVEEEAELWDPAAQDPEVAKCQTEAD
B6: DOMAIN_17775 (protein, listed as Camelus dromedarius)
chain: MPQGSVSFKDVTVDFTQEEWQQLDSAQKALYRDVMLENYCHFVSVGFHMTKPDMIHKLEQGKELWTTGRIFPSRSYLGESV
B7: DOMAIN_18693 (protein, listed as Camelus dromedarius)
chain: GQESVSFKDVTVDFTWDEWLQLTGMQRTLYRDVMLENYSHLVSVGCCITKPEVIFKLEQGEEPWPREGELPGRRDPDRSQE
B8: DOMAIN_17474 (protein, listed as Monodelphis domestica)
chain: QVPVTFEDLAVRFSAEEWHLLEEWQREFHRDVMRENYEMLVSLGTAQLLPLSAFLSLTEPQEDMGDNGCSDGEWERPGGGL
B9: DOMAIN_18459 (protein, listed as Monodelphis domestica)
chain: GQEEVAFKDVAVDFTREEWRLLSPPQKELYKEVMLENIRNLLSVGLPAPPEDMISYLEQREAPWMLEQEGLRSYSPGEEIR
B10: DOMAIN_17497 (protein, listed as Monodelphis domestica)
chain: AQEVVSFKDVAVDFTREEWRLLSPPQKELYKEVMLENARNLLSVGLPAPSEEVISYLEQREAPWILEQEGLRNCCSEGEIR
B11: DOMAIN_18646 (protein, listed as Monodelphis domestica)
chain: VKEVVTLQDVAVDFTWEEWRLLSPPQKELYREVMLENAQNLLSVGLPAPLEDVLSYLEQRKGPWMLEQKRLRSCCPGEIRL
B12: DOMAIN_18923 (protein, listed as Callithrix jacchus)
chain: ASGTLTFDDVALYFSEQEWEILEKWQKQMYKQEMKTNYETLDSLGYAFSKPDLITWMEKGRMLLISDQGRLHKTKRTAGPP
B13: DOMAIN_17548 (protein, listed as Neomonachus schauinslandi)
chain: VQGSMSFEDVIVEFTQDEWQYMSPAQRILYRDVMLENYSHLISVGYCTTKPEMIFKLEQGEEPWSLEEEFLNQRYPGYFSV
B14: DOMAIN_18979 (protein, listed as Pongo sp.)
chain: CYQDSVTFDDVAVDFTQEEWTLLDSTQRSLYSDVMLENYKNLATVGGQIIKPSLISWLEQEESKTVQGGVLQGRKTQWRGT
B15: DOMAIN_17689 (protein)
chain: MAFEDVAVYFSQEEWGLLDTAQRALYRRVMLENFTLVTSLGLSTSRPHVVIQLERGEEPWVPSGKDMTLARNTYRRLNAGE
modifications: Cercocebus atys
B16: DOMAIN_17234 (protein)
chain: PENGVTFEDIALYFSWEEWKLLDEAQRRLYHDVMLENFALISSLGVWSGEENVEASFEQSVSVVMSQVRTSKEPSSSQKTH
modifications: Delphinapterus leucas
B17: DOMAIN_17264 (protein)
chain: CEVSVSFEDVTVDFSREEWQHLDPAQRRLYRDVTLENYSHLCSVGYQVPKPEVIFKLEQGEGPWTLEEETPHQSCSDEDMG
modifications: Vicugna pacos
B18: DOMAIN_18670 (protein, listed as Neomonachus schauinslandi)
chain: B17 chain with C1L, E2Q, C42H, E68G, S74G, D79A, M80I
B19: DOMAIN_21095 (protein, listed as Trichechus manatus)
chain: LKASVSFKDVAVELTQEEWQHMGPAQRTLYRDVMLENYSHLVSVGYCIFKPEVIFKLEQGEQPWFLEQEFSNQSYPEDYNI
B20: DOMAIN_22527 (protein, listed as Tursiops truncatus)
chain: VQASLSFEDVAVHFTWEEWQLLDPSQKDLYRNVMWENYCNLVSVGYQTPKPDSFFQLEQGEPPWTVEGAGQSQTCPGTRAS
B21: DOMAIN_19699 (protein, listed as Otolemur garnettii)
chain: B4 chain with S1L, K56R, Q66E, S71G, Y72Q, A76E, T81A
B22: DOMAIN_22459 (protein, listed as Monodelphis domestica)
chain: SQGPVKFEDVAIYLWKEEWELMDSTQKRLYRQVMLETYENVLSVGTPHDKPAMIVHLEQGETAWSPALQRPGKEKGRLHGH
B23: DOMAIN_22495 (protein, listed as Callorhinus ursinus)
chain: CEGLVSFEDVTMDFSREEWQQLDPAQRCLYWDVMLEIYSHLLSVGYHIPNPEIISRMEKGKKSWIRGAQLPHQRHREVVFG
B24: DOMAIN_22278 (protein, listed as Pteropus vampyrus)
chain: KPEDVSFAEVAVYFSLDEWGYLWPAQRALYRDVMRETYGHFGELGFPGPKPALISWMEQESEAWSPAAQDPEEGESVGGAV
B25: DOMAIN_22375 (protein, listed as Tursiops truncatus)
chain: PQGCAISEDVFVYFSREEWVLLDEDQRLLYRDVMLENFALLASLGITSSRSYLVTQLEQGEEPWMPAQVDMTAATEKEAQK
B26: DOMAIN_20025 (protein, listed as Carlito syrichta)
chain: LQGSVSFKDVTVDFTQEEWHQLNPAQKALYRDVMLENYCHFISVGFHMTKPDMIRKLEQGEELWTERIFSRQSHLEEDGKA
B27: DOMAIN_21277 (protein, listed as Aotus trivirgatus)
chain: PQDLMTFDDVAVEFTQWEWGQLNPAQKDLYREVMLENFRNLTLLGLLVSKPYMICQLEEGGEPFMVNTEISVGAHSDWERR
B28: DOMAIN_22483 (protein, listed as Aotus trivirgatus)
chain: TQESLTLEDVAVEFSWEEWQLLDTAQKDLYRDVMVENYNHLVSLGYQTSKPDALSKLAHGQEPWMTDAKIQNKNCPGIRKV
B29: DOMAIN_22311 (protein, listed as Monodelphis domestica)
chain: AQEVVSFKDVAVDFTREEWRLLSPPQKELYKEVMLENARNLLSVGLSAPPEDMFSSLEQREAPWMLEKDDLRSCCPEGKMR
B30: DOMAIN_21583 (protein, listed as Sarcophilus harrisii)
chain: ALESVTFQDVAVNFTHEEWGHLKPAQKDLYREVMMENYQNFVSLGLPFSKPHVISQLEKGEAPWITEKASLVPRVSCQDFF
B31: DOMAIN_21909 (protein, listed as Suricata suricatta)
chain: AHHLVMFRDVAVDFSQDEWECLNSYQRNLYRDVILENYSNLVSVAGCSISKPDVITLLEQGREPWMVVRDERRRRTLDLES
B32: DOMAIN_19563 (protein, listed as Papio anubis)
chain: AQMLVTFKDVAVTFTQEEWRQLDLTQRTLYREVMLETCGLLVSLGHRVPKPELVHLLEHGQELWTVKRGLSDPTCAGDRTQ
B33: DOMAIN_20336 (protein, listed as Panthera pardus)
chain: SQGTVSFKDVAVNFTQEEWQYLDLPQRDLYKDVMLENYTNLISVGYQTTKPSVIHKLEQGEEPWMVEREIPNWSYAEETWQ
B34: DOMAIN_22454 (protein, listed as Monodelphis domestica)
chain: AQEVVTFKDVAVDFTREEWCLLSPPQKELYKEVMLENAQNLLSVGLPGPPEDVISYLKQRKDPWMLEQEGLRSCCPEGEIR
B35: DOMAIN_92 (protein, listed as Pan paniscus)
chain: FGNLLGVPWAQGNSALPEGLLSFKDISMEFTWDEWQLLDSTQKYLYRDVILENYHNLISVGYHGTKPDLIFKLEQGEDPWI
B36: DOMAIN_143 (protein, listed as Pan paniscus)
chain: MAAMPLKAQYQEMVTFEDVAVHFTKTEWTGLSPAQRALYRSVMLENFGNLTALGYPVPKPALISLLEGGDMAWGLEAQDDP
B37: DOMAIN_31643 (protein, listed as Micrurus lemniscatus)
chain: FREVSVYFSEEEWSWLDPDQKALYWEVMLENHRNMASLGDDGQENKDSYELLQGITARDTMETSAIEMEVERYKEKQSDDWNQESSSCTDDSV

system: HBEGF locus; type: cell-based, human; conditions: high-throughput screen of dXR repression of the HBEGF gene; abundance of each domain in the library before and after diphtheria toxin selection; HEK293T cells

Molecule	Log2 (fold change)
B1	2.9362
B2	2.945
B3	3.2831
B4	2.9374
B5	2.9733
B6	2.6595
B7	3.0179
B8	2.683
B9	3.1352
B10	2.8088
B11	2.4678
B12	2.2053
B13	2.8002
B14	2.0034
B15	3.6469
B16	2.0152
B17	3.0866
B18	3.1792

same assay, conditions: high-throughput screen of dXR repression of the HBEGF gene; abundance of each domain in the library before vs after diphtheria toxin selection; listed domains met p-value <0.01 and log2(fold change) >2

Molecule	Log2 (fold change)
B19	2.5003
B20	2.989
B21	2.8474
B22	2.9261
B23	2.2623
B24	3.3575
B25	2.5484
B26	2.2451
B27	2.7115
B28	2.1702
B29	2.9903
B30	3.1529
B31	3.2301
B32	2.5522
B33	2.3293
B34	2.6042

same assay, conditions: high-throughput screen of dXR repression of the HBEGF gene; change in abundance of each domain in the library before and after diphtheria toxin selection

Molecule	Log2 (fold change)
B35	2.1475
B36	3.63
B37	3.8782
